Source: paper PMC6523895, “Evidence of Destabilization of the Human Thymidylate Synthase (hTS) Dimeric Structure Induced by the Interface Mutation Q62R” (Biomolecules, 2019)
Where a chain is given by its changes, count along the chain named. Numbers in names are those of the source.

B1: His6-tag human thymidylate synthase (HT-hTS), wild type (enzyme, UniProt P04818 1-313, looked up)
chain: MPVAGSELPRRPLPPAAQERDAEPRPPHGELQYLGQIQHILRCGVRKDDRTGTGTLSVFGMQARYSLRDEFPLLTTKRVFWKGVLEELLWFIKGSTNAKELSSKGVKIWDANGSRDFLDSLGFSTREEGDLGPVYGFQWRHFGAEYRDMESDYSGQGVDQLQRVIDTIKTNPDDRRIIMCAWNPRDLPLMALPPCHALCQFYVVNSELSCQLYQRSGDMGLGVPFNIASYALLTYMIAHITGLKPGDFIHTLGDAHIYLNHIEPLKIQLQREPRPFPKLRILRKVEKIDDFKAEDFQIEGYNPHPTIKMEMAV
notes: human thymidylate synthase (TS, EC 2.1.1.45); The non-cleavable N-terminal His6-tag comes from the pQE80L plasmid; also called wild-type hTS; human TS; not shown: His6, N-terminal, kept
B2: His6-tag human thymidylate synthase variant Q62R (HT-hTS Q62R) (enzyme, UniProt P04818 1-313, looked up)
chain: B1 chain with Q62R
modifications: Cys195 modified as S,S-(2-hydroxyethyl)thiocysteine (CME195) in the crystal, by reaction with beta-mercaptoethanol
notes: human thymidylate synthase (TS, EC 2.1.1.45) with Gln62 replaced by arginine; plasmid pQE80L-hTS-Q62R made by site-directed mutagenesis of pQE80L-hTS; Non-cleavable N-terminal His6-tag (twelve residues belong to the tag); in the crystal the first twenty-five N-terminal residues and the tag are not traced; also called Q62R variant; not shown: His6, N-terminal, kept

How the values were obtained:
[1] = target: the molecule itself; experiment: SEC; HiLoad 16/600 Superdex 75pg, last step of purification, sample dialysed in buffer A (50 mM HEPES pH 7.5, 30 mM NaCl); profile not shown
[2] = target: the molecule itself; experiment: crystal structure; X-ray, 2.55 A, space group P2(1)22(1), four homodimers (eight subunits) in the asymmetric unit; crystals from 2.0-2.2 M ammonium sulfate, 100 mM bicine pH 9.0, with 20 mM beta-mercaptoethanol, 20 C

| Protein | stoichiometry N [1] | binding result [2] |
| --- | --- | --- |
| B1 | 2 | – |
| B2 | – | binds |
